# Assay results: publication PMC7589773
# Molecular target: AAV-DJ capsid viral protein (VP) subunit of the empty capsid (virus-like particle)
# Experiment: cryo-EM structure; empty AAV-DJ capsids (VLPs) in 50 mM HEPES, 25 mM MgCl2, 25 mM NaCl, pH 7.4; I1 symmetry imposed; 1.56 Å resolution
substance,measurement,value
AAV-DJ capsid viral protein (VP) subunit of the empty capsid (virus-like particle),stoichiometry N,60
